Assays:
Conditions in all cases: tags: PeproTech
IL-21 (interleukin-21) [1] = biological target: T1, IL-21 (interleukin-21) (Homo sapiens, UniProt Q9HBE4 SEQ:25-162); assay: cell_activity; 1 nM aptamer; 100.0% at 0.1 nM
Method: (§1) After overnight culture, the same medium was used to seed 2×10⁴ cells per well for testing. Human IL-21 alone or a mixed solution of human IL-21 and aptamer was added thereto and the cells were cultured for 16 hr. The final concentration of human IL-21 was adjusted to 0.05 nM. After 16 hr, the culture supernatant was collected and IFN-γ contained in the supernatant was quantified by sandwich ELISA method. An ELISA Kit manufactured by R&D Systems or Diaclone was used for quantification. After quantification, the inhibitory rate was calculated using the following formula.
Whether these aptamers bind to human IL-21 and inhibit the function thereof was evaluated by preparing the aptamers by chemical synthesis and using a method similar to that in Example 1. The evaluation of inhibition in the cell assay system was performed at nucleic acid final concentrations of 1 nM and 0.1 nM. […] In the Table, “n.d.” indicates unmeasured.

IL-21 (interleukin-21) [2] = biological target: T1, IL-21 (interleukin-21); assay: cell_activity; 10 nM aptamer
Method: as §1
Whether these aptamers bind to human IL-21 and inhibit the function thereof was evaluated by a method similar to that in Example 1. Aptamers were obtained by transcription using double-stranded DNA as a template. The evaluation of inhibition in the cell assay system was performed at a nucleic acid final concentration of 10 nM. […] In the Table, “n.d.” indicates unmeasured.

IL-21 (interleukin-21) [3] = biological target: T1, IL-21 (interleukin-21); assay: SPR; negative control, no binding
IL-21 (interleukin-21) [4] = biological target: T1, IL-21 (interleukin-21); assay: cell_activity; IFN-gamma secretion from NK92 cells stimulated with human IL-21
Method: as §1
Whether these aptamers bind to human IL-21 and inhibit the function thereof was evaluated by preparing the aptamers by chemical synthesis and using a method similar to that in Example 1. […] The evaluation of inhibition in the cell assay system was performed at nucleic acid final concentrations of 1 nM and 0.2 nM. In addition, in a cell assay system, the aptamer concentration (IC₅₀) at which IFN-γ secretion was inhibited by 50% by IL-21 stimulation was determined. In the Table, “n.d.” indicates unmeasured.

IL-21 (interleukin-21) [5] = biological target: T1, IL-21 (interleukin-21); assay: cell_activity; 1 nM aptamer; 100.0 at 0.2 nM
Method: as §1
Whether these aptamers bind to human IL-21 and inhibit the function thereof was evaluated by preparing the aptamers by chemical synthesis and using a method similar to that in Example 1. The evaluation of inhibition in the cell assay system was performed at nucleic acid final concentrations of 1 nM and 0.2 nM. […] In the Table, “n.d.” indicates unmeasured.

IL-21 (interleukin-21) [6] = biological target: T1, IL-21 (interleukin-21); assay: cell_activity; 10 nM aptamer, scored −
Method: as §1
Whether these aptamers bind to human IL-21 and inhibit the function thereof was evaluated by a method similar to that in Example 1. Aptamers were obtained by transcription using double-stranded DNA as a template. […] In addition, “n.d.” indicates unmeasured.

T1 sequence (Q9HBE4 25-162): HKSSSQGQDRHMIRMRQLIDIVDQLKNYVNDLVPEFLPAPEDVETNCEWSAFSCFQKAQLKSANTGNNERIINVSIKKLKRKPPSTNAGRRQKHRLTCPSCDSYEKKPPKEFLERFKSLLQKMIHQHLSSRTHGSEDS

**Q.** With GACCUUCAACCCGCGGCUACUCGGGAUUGCCCGUC (ssRNA, as SEQ38(1) with PS after G15) [SEQ38(14)] as the binder, how does the activity (IL-21 (interleukin-21) [1]) read?
**A.** 100 % inhibition

**Q.** Which activity (IL-21 (interleukin-21) [1]) does the source give for GACCUUCAACCCGCGGCUACUCGGGAUUGCCCGUC (ssRNA, as SEQ38(1) with PS after G16) [SEQ38(15)] here?
**A.** 100 % inhibition

**Q.** How did the activity (IL-21 (interleukin-21) [1]) turn out when GACCUUCAACCCGCGGCUACUCGGGAUUGCCCGUC (ssRNA, as SEQ38(1) with PS after G15,G16) [SEQ38(18)] was run?
**A.** 100 % inhibition

**Q.** With GGACCGUCAACACGCGACUACUCGUGAUUGCCCGUCC (ssRNA, 2'-F all pyrimidines) [SEQ39] as the binder, how does the activity (IL-21 (interleukin-21) [2]) read?
**A.** 56.1 % inhibition

**Q.** Which activity (IL-21 (interleukin-21) [2]) does the source give for GGACCUCCAACACGCGACUACUCGUGAUUGCCCGUCC (ssRNA, 2'-F all pyrimidines) [SEQ40] here?
**A.** 42 % inhibition

**Q.** For GGACCUUCAACACGCGACGACUCGUGAUUGCCCGUCC (ssRNA, 2'-F all pyrimidines) [SEQ41], which activity (IL-21 (interleukin-21) [2]) is on record?
**A.** 32.4 % inhibition

**Q.** With GGACCUUCAACACGCGACUACCCGUGAUUGCCCGUCC (ssRNA, 2'-F all pyrimidines) [SEQ42] as the binder, how does the activity (IL-21 (interleukin-21) [2]) read?
**A.** 39 % inhibition

**Q.** With GGACCUUCAACACGCGACUACUCGUGAUUGCACGUCC (ssRNA, 2'-F all pyrimidines) [SEQ43] as the binder, how does the activity (IL-21 (interleukin-21) [2]) read?
**A.** 43.7 % inhibition

B1: SEQ49 negative control 51mer (ssRNA)
RNA: GGGAAGCUCCGUCGAGCUUUCCUGCAUAAGCUGUAUUGCAGCCAGCAUUUA
**Q.** Does B1 bind (IL-21 (interleukin-21) [3])?
**A.** no binding

**Q.** GACCUUCAACCCGCGGCUACUCGGGAUUGCCCGUC (ssRNA, as SEQ38 plus 5' 40 kDa PEG) [SEQ38(1)] was tested. Which IC50 (IL-21 (interleukin-21) [4]) did it give?
**A.** 0.02 nM

B2: SEQ22(1) (ssRNA)
RNA: GGACCUUCAACACGCGGCUACUCGUGAUUGCCCGUCC
modifications: 2'-OMe 1-3,9-14,20,21,24-27,30-32,34-37; 2'-F 4-8,15,18,19,22,23,28,29,33; 2'-OH G16,G17; 3'-idT
**Q.** B2 was tested. Which activity (IL-21 (interleukin-21) [5]) did it give?
**A.** 100 % inhibition

**Q.** With GGACCUUCAACACGCGGCUACUCGUGAUUGCCCGUCC (ssRNA, as SEQ22(1) plus 2'-OMe C4,U28,U29; 3'-idT) [SEQ22(2)] as the binder, how does the activity (IL-21 (interleukin-21) [5]) read?
**A.** 100 % inhibition

**Q.** How did the activity (IL-21 (interleukin-21) [5]) turn out when GGACCUUCAACACGCGGCUACUCGUGAUUGCCCGUCC (ssRNA, as SEQ22(2) plus 5'-PEG 40 kDa; 3'-idT) [SEQ22(15)] was run?
**A.** 100 % inhibition

**Q.** How did the activity (IL-21 (interleukin-21) [6]) turn out when GGACCUUCAACACGCGAUACUCGUGAUUGCCCGUCC (ssRNA, 2'-F pyrimidines) [SEQ14] was run?
**A.** 13.3 % inhibition

**Q.** Which activity (IL-21 (interleukin-21) [6]) does the source give for GGACCUUCAACACGCGACACUCGUGAUUGCCCGUCC (ssRNA, 2'-F pyrimidines) [SEQ15] here?
**A.** 10.7 % inhibition

**Q.** For GGACCUUCAACACGCGACUCUCGUGAUUGCCCGUCC (ssRNA, 2'-F pyrimidines) [SEQ16], which activity (IL-21 (interleukin-21) [6]) is on record?
**A.** 10.7 % inhibition

Reference: US20230235333, “APTAMER FOR IL-21 AND USE THEREOF” (RIBOMIC INC, published 2023)
